In assay [1] the target is human CD40 ectodomain human Fc fusion protein (human) (UniProt P25942). Put plainly: competition flow cytometry: mouse mAb titrated into 2 ug/ml human CD40 ectodomain-human Fc, 1 h on ice, then added to human CD40L-transfected L cells; cell-bound CD40-Fc detected with anti-IgG-PE; blocked ligand: CD40L on L cells [left panel]. A general note: Flow cytometry measures light scatter and fluorescence of single cells or particles in a stream.

For assay [2], the target named is human CD40 on cells (B cells, MDDCs, stably transfected CHO cells) (human) (UniProt P25942). Put plainly: cell-based or functional assay.
Chain of human CD40 on cells (B cells, MDDCs, stably transfected CHO cells) (human) (P25942 21-277): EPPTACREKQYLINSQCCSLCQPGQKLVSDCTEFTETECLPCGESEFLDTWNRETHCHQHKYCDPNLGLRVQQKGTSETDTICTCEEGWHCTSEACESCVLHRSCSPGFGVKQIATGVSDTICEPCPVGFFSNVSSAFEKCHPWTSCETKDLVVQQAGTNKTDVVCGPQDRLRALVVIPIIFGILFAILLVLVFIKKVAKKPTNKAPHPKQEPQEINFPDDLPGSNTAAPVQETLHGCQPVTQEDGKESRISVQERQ

Several values for one entry are separate records, joined by “and”; a condition that tells them apart may be missing. Equal entries are not always repeated.

Experimental findings from US20220175920A1 are described below.

Chain of human CD40 ectodomain human Fc fusion protein (human) (P25942 21-193): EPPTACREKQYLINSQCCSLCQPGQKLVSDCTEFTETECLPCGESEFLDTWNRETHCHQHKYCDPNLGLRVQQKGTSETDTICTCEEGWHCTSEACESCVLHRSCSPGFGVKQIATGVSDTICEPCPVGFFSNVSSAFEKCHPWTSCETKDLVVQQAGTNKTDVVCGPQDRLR

On to 12E12 (antibody), for which the IC50 (read off the curve) in assay [1] came out at 0.1 µg/mL.

As to MEGACD40L (Mega sCD40L) (ligand), in assay [2], the EC50 (nM) IL-12 p40, MDDC secretion is > 1 nM and < 10 nM; the EC50 (nM) IL-15, MDDC secretion is > 1 nM and < 10 nM; the EC50 (nM) TNFα, MDDC secretion is > 1 nM and < 10 nM; the EC50/11B6-CD40L, IL-12 p40 was found to be 100. In assay [2], this substance gave an EC50/11B6-CD40L, IL-15 of 100 and an EC50/11B6-CD40L, TNFα of 100.

With “human IgG4 control mAb with CD40L fused to the L chain”, in assay [2], the EC50 (nM) B cell: 50% of maximum B cell proliferation (FIG. 10B) was greater than 10 nM; the fold less active in inducing B cell proliferation than the 11B6 and 12B4-CD40L fusion proteins turned out to be 10 fold.
